Test results published in patent US20220348674A1 (APOLLOMICS, published 2022).

Columns and labels:
[1] = target: T1, purified recombinant human CD40 protein (human, UniProt P25942 21-193); experiment: ELISA on coated recombinant human CD40; chimeric antibody supernatant
T1 construct: also called recombinant CD40
Protocol: ELISA plate was coated with purified recombinant CD40 protein in coating buffer at lug/ml overnight. After washed for 3 times, the plate was blocked with 1% BSA, and then cell culture supernatants containing rabbit-human chimeric CD40 antibodies were added to the plate. For detection of the antibody binding to CD40 protein, goat anti-human Fc polyclonal antibody conjugated to alkaline phosphatase was used.

[2] = target: CD40 on HEKBlue CD40L reporter cells (UniProt P25942 21-277, limits assumed); experiment: cell-based or functional assay
Sequence of CD40 on HEKBlue CD40L reporter cells (P25942 21-277 limits assumed): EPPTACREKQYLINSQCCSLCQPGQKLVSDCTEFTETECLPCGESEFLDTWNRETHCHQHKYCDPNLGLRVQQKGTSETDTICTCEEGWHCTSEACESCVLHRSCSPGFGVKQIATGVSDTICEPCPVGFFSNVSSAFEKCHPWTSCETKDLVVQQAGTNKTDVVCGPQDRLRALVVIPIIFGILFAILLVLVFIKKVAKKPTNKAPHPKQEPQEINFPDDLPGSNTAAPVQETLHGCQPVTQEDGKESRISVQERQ

[3] = target: T1, purified recombinant human CD40 protein; experiment: Octet (BLI), recombinant CD40
[4] = target: T2, cell surface human CD40 on HEK-CD40 cells (human, UniProt P25942 21-277); experiment: flow cytometry, titration on HEK-CD40 cells, CD40 MFI, anti-human IgG secondary antibody
T2 construct: whole, on cells; also called cell surface CD40
T2 sequence (P25942 21-277): as the sequence (P25942 21-277 limits assumed) above
Protocol: HEK-CD40 were collected and plated at 10⁵ cells per well in 96-well round bottom plate in FACS buffer. Serial dilutions of antibodies (Control IgG1, CP870,893, APX005m and 3B5) in 100 ul were incubated with the HEK-CD40 cells for 60 min at 4° C. Cells were washed 3 times with 200 ul FACS buffer. Cell-bound antibodies were detected using an APC-conjugated secondary antibody specific to human IgG heavy and light chain. After incubating 30 min with secondary antibody, HEK-CD40 cells were washed 3 times with 200 ul FACS buffer and resuspended in 200 ul FACS with 1 ug/ml DAPI. Flow cytometric analyses were performed using Attune N×T flow cytometer (ThermoFisher Scientific, Waltham, Mass.). After gating on FCS-SSC parameters to exclude debris and selectively gating DAPI negative cells on DAPI-SSC parameters to exclude dead cells, the geometric mean fluorescence intensity (MFI) of antibodies was determined using FlowJo v10 (BD Bioscience, San Jose, Calif.). Dose-response curves were generated and EC50s calculated using GraphPad Prism 8 (GraphPad Software, San Diego, Calif.).

T1 sequence (P25942 21-193 limits assumed): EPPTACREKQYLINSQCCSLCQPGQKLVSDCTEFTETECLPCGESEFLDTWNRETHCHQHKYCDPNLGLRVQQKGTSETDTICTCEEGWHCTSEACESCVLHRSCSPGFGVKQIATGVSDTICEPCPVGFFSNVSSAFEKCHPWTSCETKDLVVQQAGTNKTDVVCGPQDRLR

Binder | OD405 [1] | further results
3E12 rabbit-human chimeric anti-CD40 antibody (antibody, V domains shown, tested as cell culture supernatant) VH: QSVKESEGGLFKPTDTLTLTCTVSGFSFSNYRMIWVRQAPGNGLEWIGVIDRNDNTYYATWAKSRSTITRNTNLNTVTLKMTSLTAADTATYFCARDTDYTTGGIWGPGTLVTVSS VL: DIVMTQTPASVSAAVGGTVTIKCQASQNIGDNLAWHQQKPGQPPKLLIYGASTLASGVPSRFKGSGSRTEYTLTISDLECADAATYYCQSNYYSTSSSYYNSFGGGTEVVVK | 1.39 OD405 | –
2E3 rabbit-human chimeric anti-CD40 antibody (antibody, V domains shown, tested as cell culture supernatant) VH: QSVEESGGRLVTPGTPLTLTCTVSGFSLSTYAMSWVRQAPGKGLEWIGIIDGSSFTVYANWAKGRFTISKTSTTVDLKMTSLTASDTATYFCARGATFFGLWGPGTLVTVSS VL: DVVMTQTPASVSAAVGGTVTIKCQASQSISGVLAWYQQKPGQPPKLLIYRAADLASGVPSRFKGSGSGTEFTLTINDLECDDAATYYCQSYYYSNSGSYSYAFGGGTEVVVK | 1.62 OD405 | –
3B5 rabbit-human chimeric anti-CD40 antibody (antibody, V domains shown, tested as cell culture supernatant) VH: QSVEESGGRLITPGTPLTLTCTVSGFSLSTYAVSWVRQAPGKGLEWIGIIDSGGGTAYASWVKGRFTISKTSTTVDLKITSPTTEDTATYFCARGVTFFGLWGPGTLVTVSS VL: DIVMTQTPASVEAAVGGTVTIKCQASQSISNYLSWYQQKPGQPPKLLIYRASDLASGVPSRFKGSGSGTEFTLTISDLECADAATYYCQAYYYSGGGSYDYAFGGGTEVVVK | 1.48 OD405 | –
3B5, humanized anti-CD40 mAb, IgG1 isotype (antibody, V domains shown, also called HZD_3B5; 3B5 antibody) VH: EVQLVESGGGLIQPGGSLRLSCAVSGFSLSTYAVSWVRQAPGKGLEWVGIIDSGGGTAYASWVKGRFTISRDNSKNTLYLQMNSLRAEDTAVYYCARGVTFFGLWGQGTLVTVSS VL: DIVMTQSPSTLSASVGDRVTITCQASQSISNYLSWYQQKPGKAPKLLIYRASDLASGVPSRFSGSGSGTEFTLTISSLQPDDFATYYCQAYYYSGGGSYDYAFGGGTKVEIK | – | IC50 (read off the curve) [2]: ~0.06 µg/mL; Kd [3]: < 1 pM; koff [3]: < 1e-07 s⁻¹; kon [3]: 1.06e+06 M⁻¹ s⁻¹; EC50 [4]: 0.69 µg/mL

The next lines start with results.

OD405 [1] | Binder | further results
1.72 OD405 | 4B7 rabbit-human chimeric anti-CD40 antibody (antibody, V domains shown, tested as cell culture supernatant) VH: QSVKESEGGLFKPTDTLTLTCTVSGFTLSNYRVIWVRQAPGNGLEWIGGIDRSAVAYYASWAKSRSTITRNTNLNTVTLKMTSLTAADTATYFCARDTDYTSGGIWGPGTLVTVSS VL: DIVMTQTPSSVSAAVGGTVTIKCQASQNIGGNLAWYQQKPGQPPKLLIYGSSTLESGVPSRFSGSGSGTEYTLTISDLQCADAATYYCQSNYWSRSSSYVNSFGGGTEVVVK | –
2.01 OD405 | 197 rabbit-human chimeric anti-CD40 antibody (antibody, V domains shown, tested as cell culture supernatant) VH: QEQLKESGGGLVTPGTALTLTCTASGSDISSYAMNWVRQAPGKGLEYIGVITSSGTIYYANWATGRFTISKASSTTVDLKTTRLTTEDTATYFCARGITGAVTTGLSLWGPGTLVTVSS VL: DVVMTQTPPSVSEPVGGTVTIKCQASQNIYNNLAWYQQTPGQPPKLLGYAASNLASGVSSRFSGSGYGTEFTLTISDLECADAATYYCLGGYYGNNVGNTFGGGTEVVVK | –
1.65 OD405 | 4A7 rabbit-human chimeric anti-CD40 antibody (antibody, V domains shown, tested as cell culture supernatant) VH: QSVEESGGRLVTPGTPLTLTCTVSGFSLSTYAMSWVRQAPGKGLEWIGIIDGGGFAVYANWAKGRFTISKASTTVDLKLPSPTTEDTATYFCARGVTFFNLWGPGTLVTVSS VL: DIVMTQTPASVEAAVGDTVTIKCQASQSISSALAWYQQKPGQPPKLLIYRASTLESGVPSRFKGSGSGTEFTLTISDLECADAATYYCQSYYYSSGGSYDYAFGGGTEVVVK | –
1.8 OD405 | 198 rabbit-human chimeric anti-CD40 antibody (antibody, V domains shown, tested as cell culture supernatant) VH: QSVKESEGGLFKPTDTLTLTCTVSGFSLGSYTMAWVRQAPGNGLEYIGTIDSSGSADYASWAQSRSTITRNTNLNTVTLKMTSLTAADTATYFCARPTNYEYTWALNIWGPGTLVTVSS VL: DVVMTQTPASVSEPVGGTVTIKCQASQTIYSYLAWYQQKPGQPPKLLIYGASKLASGVPSRFSGSRSGTEFTLTISDLECADAATYYCQCTGYDSAYVYNDFGGGTEVVVK | –
